Experimental data as given in patent US11873336 (TENEOBIO, dated 2024).
Positions count from the first letter of the chain named.

T1: human CD22 protein (recombinant CD22 extracellular domain) (human, UniProt P20273 20-687)
T1 construct: extracellular domain; also called SIGLEC-2
T1 sequence (looked up): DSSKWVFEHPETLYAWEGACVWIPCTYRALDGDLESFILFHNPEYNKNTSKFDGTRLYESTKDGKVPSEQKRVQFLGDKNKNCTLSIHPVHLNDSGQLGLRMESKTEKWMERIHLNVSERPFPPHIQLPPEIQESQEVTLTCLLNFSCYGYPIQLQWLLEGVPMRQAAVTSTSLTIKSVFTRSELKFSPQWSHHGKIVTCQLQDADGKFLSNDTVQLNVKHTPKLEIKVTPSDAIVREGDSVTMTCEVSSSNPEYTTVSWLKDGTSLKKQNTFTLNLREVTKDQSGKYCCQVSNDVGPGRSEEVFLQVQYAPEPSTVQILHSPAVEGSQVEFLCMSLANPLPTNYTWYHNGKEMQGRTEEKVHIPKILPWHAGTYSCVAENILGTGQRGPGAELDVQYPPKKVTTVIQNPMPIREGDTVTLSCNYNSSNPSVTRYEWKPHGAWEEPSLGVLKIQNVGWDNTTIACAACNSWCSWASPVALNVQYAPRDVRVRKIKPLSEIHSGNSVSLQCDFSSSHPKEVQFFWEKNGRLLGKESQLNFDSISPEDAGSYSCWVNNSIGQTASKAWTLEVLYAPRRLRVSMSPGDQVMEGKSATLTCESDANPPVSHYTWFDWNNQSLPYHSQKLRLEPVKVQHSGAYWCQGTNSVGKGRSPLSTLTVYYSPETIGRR

T2: human CD22 on CD22-positive Burkitt's lymphoma cells (Daudi, Raji, Ramos) (human, UniProt P20273 20-847)
T2 construct: whole, on cells; also called CD22+ cells; CD22 positive cells
T2 sequence (looked up): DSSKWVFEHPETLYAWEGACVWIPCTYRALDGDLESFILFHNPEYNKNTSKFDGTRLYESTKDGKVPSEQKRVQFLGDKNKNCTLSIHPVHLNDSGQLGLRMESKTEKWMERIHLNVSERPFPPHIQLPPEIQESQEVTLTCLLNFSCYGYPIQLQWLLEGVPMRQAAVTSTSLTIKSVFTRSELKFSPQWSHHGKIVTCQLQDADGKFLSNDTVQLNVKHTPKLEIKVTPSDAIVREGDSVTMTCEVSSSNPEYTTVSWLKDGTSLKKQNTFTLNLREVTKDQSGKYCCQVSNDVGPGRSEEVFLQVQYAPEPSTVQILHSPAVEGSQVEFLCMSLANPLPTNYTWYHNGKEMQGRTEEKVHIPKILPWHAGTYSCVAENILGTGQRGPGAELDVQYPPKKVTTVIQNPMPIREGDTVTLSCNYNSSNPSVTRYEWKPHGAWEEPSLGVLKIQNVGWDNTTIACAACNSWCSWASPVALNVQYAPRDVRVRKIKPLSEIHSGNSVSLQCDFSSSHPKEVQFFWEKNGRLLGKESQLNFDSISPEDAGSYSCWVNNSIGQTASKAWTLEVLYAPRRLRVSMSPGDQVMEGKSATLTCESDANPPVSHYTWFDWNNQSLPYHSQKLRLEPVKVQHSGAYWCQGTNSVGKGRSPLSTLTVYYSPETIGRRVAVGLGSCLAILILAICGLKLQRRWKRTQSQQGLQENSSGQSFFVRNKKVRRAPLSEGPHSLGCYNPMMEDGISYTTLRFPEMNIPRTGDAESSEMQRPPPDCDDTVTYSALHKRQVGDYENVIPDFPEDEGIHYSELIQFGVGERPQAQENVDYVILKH

B1: anti-CD22 heavy chain-only antibody with the VH of SEQ ID NO: 39 (antibody, V domains shown)
VH: QLQLQESGPGLVKPSETLSLTCTVSGDSISSGDYYWGWIRQPPGKGLEWIGHIYYSGATYYNPSLKNRVTISVDTSKNQFSLKLSSVTAADTAVYYCTREDSSNWRSRGQGTLVTVSS
notes: Heavy chain-only antibody (UniAb), human IgG
B2: anti-CD22 heavy chain-only antibody with the VH of SEQ ID NO: 40 (antibody, V domains shown)
VH: B1 VH with N104S
notes: as for B1
B3: anti-CD22 heavy chain-only antibody with the VH of SEQ ID NO: 53 (antibody, V domains shown)
VH: B1 VH with H52S, S56T, A58S, N67S
notes: as for B1
B4: anti-CD22 heavy chain-only antibody with the VH of SEQ ID NO: 46 (antibody, V domains shown)
VH: B1 VH with H52N, N104S
notes: as for B1
B5: anti-CD22 heavy chain-only antibody with the VH of SEQ ID NO: 56 (antibody, V domains shown)
VH: B1 VH with D27G, G32S, D33S, A58V, V94A, E100D
notes: as for B1
B6: anti-CD22 heavy chain-only antibody with the VH of SEQ ID NO: 45 (antibody, V domains shown)
VH: B1 VH with H52S, A58S, N67S, N104S
notes: as for B1
B7: anti-CD22 heavy chain-only antibody with the VH of SEQ ID NO: 32 (antibody, V domains shown)
VH: B1 VH with K77R, K83N, N104S
notes: as for B1
B8: anti-CD22 heavy chain-only antibody with the VH of SEQ ID NO: 28 (antibody, V domains shown)
VH: B1 VH with K77R, K83N, E100D
notes: as for B1
B9: anti-CD22 heavy chain-only antibody with the VH of SEQ ID NO: 35 (antibody, V domains shown)
VH: B1 VH with K66E, N104S
notes: as for B1
B10: anti-CD22 heavy chain-only antibody with the VH of SEQ ID NO: 33 (antibody, V domains shown)
VH: B1 VH with A58V, E100D
notes: as for B1
B11: anti-CD22 heavy chain-only antibody with the VH of SEQ ID NO: 30 (antibody, V domains shown)
VH: B1 VH with E100D
notes: as for B1
B12: anti-CD22 heavy chain-only antibody with the VH of SEQ ID NO: 44 (antibody, V domains shown)
VH: B1 VH with D27G, K66E, E100D
notes: as for B1
B13: anti-CD22 heavy chain-only antibody with the VH of SEQ ID NO: 43 (antibody, V domains shown)
VH: B1 VH with D27G, K77R, E100D
notes: as for B1
B14: anti-CD22 heavy chain-only antibody with the VH of SEQ ID NO: 52 (antibody, V domains shown)
VH: B1 VH with H52S, A58S, N67S
notes: as for B1
B15: anti-CD22 heavy chain-only antibody with the VH of SEQ ID NO: 24 (antibody, V domains shown)
VH: B1 VH with A58V, N67S, K77R
notes: as for B1
B16: anti-CD22 heavy chain-only antibody with the VH of SEQ ID NO: 26 (antibody, V domains shown)
VH: B1 VH with A58V, N104S
notes: as for B1
B17: anti-CD22 heavy chain-only antibody with the VH of SEQ ID NO: 27 (antibody, V domains shown)
VH: B1 VH with A58V, K77R, K83N, N104S
notes: as for B1
B18: anti-CD22 heavy chain-only antibody with the VH of SEQ ID NO: 57 (antibody, V domains shown)
VH: B1 VH with D27G, G32S, D33S, A58V, E100D
notes: as for B1
B19: anti-CD22 heavy chain-only antibody with the VH of SEQ ID NO: 54 (antibody, V domains shown)
VH: B1 VH with D27G, K77R
notes: as for B1
B20: anti-CD22 heavy chain-only antibody with the VH of SEQ ID NO: 25 (antibody, V domains shown)
VH: B1 VH with K66E, E100D
notes: as for B1
B21: anti-CD22 heavy chain-only antibody with the VH of SEQ ID NO: 58 (antibody, V domains shown)
VH: B1 VH with D27G, G32S, D33S, H52S, A58S, N67S, K77R, K83N, N104S
notes: as for B1
B22: anti-CD22 heavy chain-only antibody with the VH of SEQ ID NO: 29 (antibody, V domains shown)
VH: B1 VH with K77R, E100D
notes: as for B1
B23: anti-CD22 heavy chain-only antibody with the VH of SEQ ID NO: 50 (antibody, V domains shown)
VH: B1 VH with H52N, E100D
notes: as for B1
B24: anti-CD22 heavy chain-only antibody with the VH of SEQ ID NO: 47 (antibody, V domains shown)
VH: B1 VH with D33G, H52S, A58S, N104S
notes: as for B1
B25: anti-CD22 heavy chain-only antibody with the VH of SEQ ID NO: 34 (antibody, V domains shown)
VH: B1 VH with A58V, K77R
notes: as for B1
B26: anti-CD22 heavy chain-only antibody with the VH of SEQ ID NO: 51 (antibody, V domains shown)
VH: B1 VH with D27G, G32S, D33S, H52S, A58S, N67S, E100D
notes: as for B1
B27: anti-CD22 heavy chain-only antibody with the VH of SEQ ID NO: 49 (antibody, V domains shown)
VH: B1 VH with H52N
notes: as for B1
B28: anti-CD22 heavy chain-only antibody with the VH of SEQ ID NO: 36 (antibody, V domains shown)
VH: B1 VH with K77R, N104S
notes: as for B1
B29: anti-CD22 heavy chain-only antibody with the VH of SEQ ID NO: 48 (antibody, V domains shown)
VH: B1 VH with Q41H, N104S
notes: as for B1
B30: anti-CD22 heavy chain-only antibody with the VH of SEQ ID NO: 37 (antibody, V domains shown)
VH: B1 VH with A58V
notes: as for B1
B31: anti-CD22 heavy chain-only antibody with the VH of SEQ ID NO: 38 (antibody, V domains shown)
VH: B1 VH with K77R, K83N
notes: as for B1
B32: anti-CD22 heavy chain-only antibody with the VH of SEQ ID NO: 42 (antibody, V domains shown)
VH: B1 VH with H52S, E100D
notes: as for B1
B33: anti-CD22 heavy chain-only antibody with the VH of SEQ ID NO: 41 (antibody, V domains shown)
VH: B1 VH with K77R
notes: as for B1
B34: anti-CD22 heavy chain-only antibody with the VH of SEQ ID NO: 31 (antibody, V domains shown)
VH: B1 VH with D33G, E100D
notes: as for B1

biological target: T1, human CD22 protein (recombinant CD22 …); assay: ELISA on recombinant CD22 extracellular domain and/or cell binding

binding result | Binder
binds | B1
binds | B2
binds | B3
binds | B4
binds | B5
binds | B6
binds | B7
binds | B8
binds | B9
binds | B10
binds | B11
binds | B12
binds | B13
binds | B14
binds | B15
binds | B16
binds | B17

binding result | Binder
binds | B18
binds | B19
binds | B20
binds | B21
binds | B22
binds | B23
binds | B24
binds | B25
binds | B26
binds | B27
binds | B28
binds | B29
binds | B30
binds | B31
binds | B32
binds | B33
binds | B34

biological target: T2, human CD22 on CD22-positive Burkitt's …; assay: cell binding, Daudi cells
Procedure: Binding to CD22 positive cells was assessed by flow cytometry (Guava easyCyte 8HT, EMD Millipore) using the Daudi cell line (ATCC). Briefly, 100,000 target cells were stained with a dilution series of purified UniAbs™ for 30 minutes at 4° C. Following incubation, the cells were washed twice with flow cytometry buffer (1×PBS, 1% BSA, 0.1% NaN_3) and stained with goat F(ab')2 anti-human IgG conjugated to R-phycoerythrin (PE) (Southern Biotech, cat. #2042-09) to detect cell-bound antibodies. After a 20-minute incubation at 4° C., the cells were washed twice with flow cytometry buffer and then mean fluorescence intensity (MFI) was measured by flow cytometry. EC50 values were calculated using GraphPad Prism 7. Binding to *cynomolgus* CD22 positive cells was determined using the same protocol with the following modifications: the target cells were from CHO cells stably transfected to express the extracellular domain of *cynomolgus* CD22 and each antibody was tested at a single concentration (~1.7 µg/mL) so EC50 values were not calculated.

binding result | Binder
binds | B1
binds | B2
binds | B3
binds | B4
binds | B5
binds | B6
binds | B7
binds | B8
binds | B9
binds | B10
binds | B11
binds | B12
binds | B13
binds | B14
binds | B15
binds | B16
binds | B17

binding result | Binder
binds | B18
binds | B19
binds | B20
binds | B21
binds | B22
binds | B23
binds | B24
binds | B25
binds | B26
binds | B27
binds | B28
binds | B29
binds | B30
binds | B31
binds | B32
binds | B33
binds | B34
